Assay results as given in patent publication US20180155399A1.

T1: murine TFPI 1-160 (mouse), O54819
T1 chain: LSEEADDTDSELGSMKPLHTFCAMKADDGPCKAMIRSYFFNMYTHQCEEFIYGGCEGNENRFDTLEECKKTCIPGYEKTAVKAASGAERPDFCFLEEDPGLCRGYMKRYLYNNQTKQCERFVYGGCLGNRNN


Molecular target: T1, murine TFPI 1-160 (mouse), O54819
Experiment: cell-based or functional assay
Conditions: not given

Row | FXa inhibition assay [µM] | Binder
1 | > 10 | SYYKWHCAMRDMKGTMTCVWVKF (modifications not checked) [JBT1837]

Molecular target: T2, human Tissue Factor Pathway Inhibitor-1α (TFPI-1α) (human), P10646
Experiment: competition
Conditions: modification not given

T2 sequence (P10646 29-304): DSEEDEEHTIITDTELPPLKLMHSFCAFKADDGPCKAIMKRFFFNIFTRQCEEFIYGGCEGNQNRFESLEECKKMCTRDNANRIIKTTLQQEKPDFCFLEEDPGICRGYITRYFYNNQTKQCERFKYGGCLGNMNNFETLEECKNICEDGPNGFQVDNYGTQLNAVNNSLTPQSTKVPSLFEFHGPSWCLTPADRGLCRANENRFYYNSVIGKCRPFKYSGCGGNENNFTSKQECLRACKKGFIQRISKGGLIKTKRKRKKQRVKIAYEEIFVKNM

Row | IC50 [nM] | Binder
2 | > 5000 | FQSKKNVFDFGYFERLRAKL [JBT0592]
3 | > 5000 | FQFKKNVFVFGYFERLRAKL [JBT0571]
4 | > 5000 | FQSKKFVFVFGYFERLRAKL [JBT0574]
5 | 73 | FQSVGNVFVDGYFERLSAKL [JBT1278]
6 | > 5000 | FQSKKNVFVFGDFERLRAKL [JBT0594]
7 | > 5000 | FQSFKNVFVFGYFERLRAKL [JBT0572]
8 | 107 | FQSKGNVFVFGYFDRLRAKL [JBT0528]
9 | > 5000 | FFSKKNVFVFGYFERLRAKL [JBT0570]
10 | > 5000 | FQSKKNVFVFGYFEFLRAKL [JBT0579]
11 | > 5000 | FQSKKNVFVFGYFERFRAKL [JBT0580]
12 | > 5000 | FQSKKNVFVFGYFERLDAKL [JBT0598]
13 | > 5000 | FQSKKLVFVFGYFERLRAKL [JBT0606]
14 | > 5000 | FQLKKNVFVFGYFERLRAKL [JBT0603]
15 | > 5000 | FQSKKNDFVFGYFERLRAKL [JBT0590]
16 | > 5000 | FQSKKNVFVFGFFERLRAKL [JBT0577]
17 | 1190 | FESKGNVFVFGYFERLRAKL [JBT0516]
18 | 27 | FQSKGNVFVTGYFARLRAKL [JBT0720]
19 | > 1670 | FQSLKNVFVFGYFERLRAKL [JBT0604]

Row | IC50 [nM] | Binder
20 | > 5000 | FLSKKNVFVFGYFERLRAKL [JBT0602]
21 | > 5000 | FQSKKNVFVFGYFERLRAFL [JBT0583]
22 | > 5000 | FQSKKNVFVFGYFERDRAKL [JBT0597]
23 | > 5000 | FQSKGNVFVFAYFERLRAKL [JBT0525]
24 | 1370 | FQSKFNVFVFGYFERLRAKL [JBT0573]
25 | > 1670 | FQSKKNVFVFFYFERLRAKL [JBT0576]
26 | > 5000 | FQSKKNVFVFGYFERLFAKL [JBT0581]
27 | > 5000 | FQSKKNVFVFGYFERLRFKL [JBT0582]
28 | 42 | FQSKGNVFVAGYFARLRAKL [JBT0806]
29 | > 5000 | FQSDKNVFVFGYFERLRAKL [JBT0588]
30 | 188 | FQSKGDVFVFGYFERLRAKL [JBT0520]
31 | 40 | FQSKNNVFVHGYFERLRAKL [JBT0487]
32 | > 1670 | FDSKKNVFVFGYFERLRAKL [JBT0586]
33 | > 1670 | FQSKLNVFVFGYFERLRAKL [JBT0605]
34 | > 1670 | LKARLREFYGFVFVNKKSQF [JBT0783]
35 | > 5000 | FQSKKNVDVFGYFERLRAKL [JBT0591]
36 | 100 | AQSKGNVFVFGYFERLRAKL [JBT0497]

Molecular target: T2, human Tissue Factor Pathway …
Experiment: not given
Conditions: modification not given

Row | EC50 [nM] | Binder
37 | 220 | FQSKGNVFVTGYFARLRAKL [JBT0720]
